Patent US20250206820A1 (NGM BIOPHARMACEUTICALS, published 2025)
Residue numbers refer to the chain shown, from its start. Where two headings read alike, the source gives them in different places.

Legend:
[1] = biological target: T1, CD3 (as used in the affinity measurements) (human, UniProt P07766 23-126); assay: SPR
T1 construct: the description gives human CD3 as UniProtKB P07766; also called human CD3

[2] = biological target: T2, human ILT3 (as used in the affinity measurements) (human, UniProt Q8NHJ6 22-259, limits assumed); assay: column 'ILT3 Affinity (nM)'; method and format not stated
T2 construct: also called immunoglobulin-like transcript 3

[3] = biological target: T3, ILT3 on target cells (MOLM13, OCI-AML-2, NALM-1, THP-1, MM1S, H929, U226B1 and other lines) (human, UniProt Q8NHJ6 22-448); assay: cell-based or functional assay
[4] = biological target: T3, ILT3 on target cells (MOLM13, …); assay: cell-based or functional assay; remark: listed apart in the source
[5] = biological target: T3, ILT3 on target cells (MOLM13, …); assay: cell-based or functional assay; remark: listed apart in the source
[6] = biological target: T3, ILT3 on target cells (MOLM13, …); assay: cell-based or functional assay; remark: listed apart in the source
[7] = biological target: T3, ILT3 on target cells (MOLM13, …); assay: cell-based or functional assay; remark: listed apart in the source
[8] = biological target: T3, ILT3 on target cells (MOLM13, …); assay: cell-based or functional assay; remark: listed apart in the source
[9] = biological target: T2, human ILT3 (as used in the affinity …); assay: comparison of the affinity of Hz45G10 for human ILT3 with that of the CD3 scFv for CD3

T1 sequence (P07766 23-126): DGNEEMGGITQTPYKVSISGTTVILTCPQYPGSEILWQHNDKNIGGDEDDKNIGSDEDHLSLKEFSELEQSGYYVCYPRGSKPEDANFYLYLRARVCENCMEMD

B1: anti-CD3 scFv clone (VH as SEQ ID NO: 149, VL as SEQ ID NO: 150) (scFv)
scFv: EVQLLESGGGLVQPGGSLKLSCAASGFTFNTYAMNWVRQAPGKCLEWVARIRSKYNNYATYYADSVKDRFTISRDDSKNTAYLQMNNLKTEDTAVYYCVRHGNFGNSYVSWFAYWGQGTLVTVSSGGGGSGGGGSGGGGSELVVTQEPSLTVSPGGTVTLTCRSSTGAVTTSNYANWVQQKPGQAPRGLIGGTNKRAPGTPARFSGSLLGGKAALTLSGVQPEDEAEYYCALWYSNLWVFGCGTKLTVL
notes: also called the CD3 scFv
Kd [1]: 6 nM

B2: 3A3 anti-ILT3 antibody (antibody, V domains shown)
VH: QVQLKESGPGLVAPSQSLSITCTVSGFSLTSYGVHWVRQPPGKGLEWLGVIWPGGTINYNSALMSRLSISKDNSKSQVFLKLNSLQTDDTAMYYCASDKYDGGWFAYWGQGTLVTVSA
VL: DIVMTQSQKFMSTSVGDRVSITCKASQNVRTAVAWYQQKPGQSPEALIYLASNRHTGVPDRFTGSGSGTDFSLSISNVQSEDLADYFCLQHLNYPLTFGSGTKLEIK
Kd [2]: 2 nM

B3: 53F10 anti-ILT3 antibody (antibody, V domains shown)
VH: EVQVVESGGGLVKPGGSLKLSCAASGFTFSDYGMHWVRQAPEKGLEWVAYISTGIITVYYADTVKGRFTMSRDNAKNTLFLQMTSLRSEDTAIYYCARADGRGAMDYWGQGTSVIVSS
VL: DIQMTQTTSSLSASLGDRVTISCRASQDISNFLNWYQQKPDGTVTLLIYYTSRLHSGVPSRFSGSGSGTDYSLTISNLEQEDFATYFCQQGNTLPWTFGGGTKLEIK
Kd [2]: 0.25 nM

B4: 48A6 anti-ILT3 antibody (antibody, V domains shown)
VH: EVQLVESGGDLMKPGGSLKLSCAASGFTFSSYGMSWVRQTPDKRLEWVATISSGGTYTFYPDSVKGRFTISRDNAKNTLYLQMSSLKSEDTAMYYCARRGWLLHYYAMDYWGQGTSVTVSS
VL: NIVLTQSPASLAVSLGQRATISCRPSESVDSFGNSFMHWFQQKPGQPPKLLIYLSSKLESGVPARFSGSGSRTDFTLTIDPVEADDAATYYCQQHNEDPFTFGSGTKLEIK
Kd [2]: 0.08 nM

B5: ABX1446, ILT3xCD3 bispecific antibody, format F0 (bispecific antibody, human IgG1, kappa, L234A L235A)
chain: EVQLLESGGGLVQPGGSLKLSCAASGFTFNTYAMNWVRQAPGKCLEWVARIRSKYNNYATYYADSVKDRFTISRDDSKNTAYLQMNNLKTEDTAVYYCVRHGNFGNSYVSWFAYWGQGTLVTVSSGGGGSGGGGSGGGGSELVVTQEPSLTVSPGGTVTLTCRSSTGAVTTSNYANWVQQKPGQAPRGLIGGTNKRAPGTPARFSGSLLGGKAALTLSGVQPEDEAEYYCALWYSNLWVFGCGTKLTVLGGGGSDKTHTCPPCPAPEAAGGPSVFLFPPKPKDTLMISRTPEVTCVVVDVSHEDPEVKFNWYVDGVEVHNAKTKPREEQYNSTYRVVSVLTVLHQDWLNGKEYKCKVSNKALPAPIEKTISKAKGQPREPQVYTLPPSREEMTKNQVSLSCAVKGFYPSDIAVEWESNGQPENNYKTTPPVLDSDGSFFLVSKLTVDKSRWQQGNVFSCSVMHEALHNHYTQKSLSLSPGK
heavy: EVQLVESGGGLVQPGGSLRLSCAASGFTFSDYGMHWVRQAPGKGLEWVAYIFSGSSTIYYADTVKGRFTISRDNAKNSLYLQMNSLRAEDTAVYYCARADGRGAMDYWGQGTLVTVSSASTKGPSVFPLAPSSKSTSGGTAALGCLVKDYFPEPVTVSWNSGALTSGVHTFPAVLQSSGLYSLSSVVTVPSSSLGTQTYICNVNHKPSNTKVDKKVEPKSCDKTHTCPPCPAPEAAGGPSVFLFPPKPKDTLMISRTPEVTCVVVDVSHEDPEVKFNWYVDGVEVHNAKTKPREEQYNSTYRVVSVLTVLHQDWLNGKEYKCKVSNKALPAPIEKTISKAKGQPREPQVYTLPPSREEMTKNQVSLWCLVKGFYPSDIAVEWESNGQPENNYKTTPPVLDSDGSFFLYSKLTVDKSRWQQGNVFSCSVMHEALHNHYTQKSLSLSPGK
light: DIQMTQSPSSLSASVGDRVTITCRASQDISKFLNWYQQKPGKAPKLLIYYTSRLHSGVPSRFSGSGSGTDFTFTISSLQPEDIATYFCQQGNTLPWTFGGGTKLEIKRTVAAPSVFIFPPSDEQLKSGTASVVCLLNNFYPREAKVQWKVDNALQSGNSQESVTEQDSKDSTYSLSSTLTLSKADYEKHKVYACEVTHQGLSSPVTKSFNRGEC
TDCC, EC50 (pM), MOLM13 cells, expanded T cells [3]: 0.9 pM | PBMC Cytotoxicity, EC50 (pM), MOLM13 cells, naive T cells from PBMCs [4]: 46.8 pM | TDCC, EC50 (pM), MOLM13 cells, expanded T cells [4]: 10.9 pM | TDCC vs. NALM-1 Cells, EC50 (pM), expanded T cells [5]: 5.7 pM | TDCC vs. OCI-AML-2 Cells, EC50 (pM), expanded T cells [5]: 13.5 pM | TDCC vs. NKM-1 Cells, EC50 (pM), naive T cells from PBMCs [6]: 20.4 pM | TDCC vs. OCI-AML-2 Cells, EC50 (pM), naive T cells from PBMCs [6]: 2.5 pM | TDCC, EC50 (pM), MOLM13 cells [7]: 11 pM | TDCC, EC50 (pM), H929 cells [8]: 18.6 pM | TDCC, EC50 (pM), MM1S cells [8]: 18.6 pM | TDCC, EC50 (pM), U226B1 cells [8]: 6.5 pM

B6: ABX1520, ILT3xCD3 bispecific antibody, format F13 (bispecific antibody, human IgG1, kappa, L234A L235A)
chain: B5 chain
heavy: EVQLVESGGGLVQPGGSLRLSCAASGFTFSDYGMHWVRQAPGKGLEWVAYIFSGSSTIYYADTVKGRFTISRDNAKNSLYLQMNSLRAEDTAVYYCARADGRGAMDYWGQGTLVTVSSASTKGPSVFPLAPSSKSTSGGTAALGCLVKDYFPEPVTVSWNSGALTSGVHTFPAVLQSSGLYSLSSVVTVPSSSLGTQTYICNVNHKPSNTKVDKKVEPKSCGGGGSEVQLVESGGGLVQPGGSLRLSCAASGFTFSDYGMHWVRQAPGKGLEWVAYIFSGSSTIYYADTVKGRFTISRDNAKNSLYLQMNSLRAEDTAVYYCARADGRGAMDYWGQGTLVTVSSASTKGPSVFPLAPSSKSTSGGTAALGCLVKDYFPEPVTVSWNSGALTSGVHTFPAVLQSSGLYSLSSVVTVPSSSLGTQTYICNVNHKPSNTKVDKKVEPKSCDKTHTCPPCPAPEAAGGPSVFLFPPKPKDTLMISRTPEVTCVVVDVSHEDPEVKFNWYVDGVEVHNAKTKPREEQYNSTYRVVSVLTVLHQDWLNGKEYKCKVSNKALPAPIEKTISKAKGQPREPQVYTLPPSREEMTKNQVSLWCLVKGFYPSDIAVEWESNGQPENNYKTTPPVLDSDGSFFLYSKLTVDKSRWQQGNVFSCSVMHEALHNHYTQKSLSLSPGK
light: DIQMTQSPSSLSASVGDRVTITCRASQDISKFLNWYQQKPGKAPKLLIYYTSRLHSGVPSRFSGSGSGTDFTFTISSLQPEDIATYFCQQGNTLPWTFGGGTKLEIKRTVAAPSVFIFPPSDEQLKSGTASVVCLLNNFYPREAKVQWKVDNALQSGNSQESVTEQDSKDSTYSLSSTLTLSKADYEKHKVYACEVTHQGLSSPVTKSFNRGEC
PBMC Cytotoxicity, EC50 (pM), MOLM13 cells, naive T cells from PBMCs [4]: 53.7 pM | TDCC, EC50 (pM), MOLM13 cells, expanded T cells [4]: 1.4 pM | TDCC vs. NALM-1 Cells, EC50 (pM), expanded T cells [5]: 3.6 pM | TDCC vs. OCI-AML-2 Cells, EC50 (pM), expanded T cells [5]: 23.3 pM | TDCC vs. NKM-1 Cells, EC50 (pM), naive T cells from PBMCs [6]: 2.6 pM | TDCC vs. OCI-AML-2 Cells, EC50 (pM), naive T cells from PBMCs [6]: 2 pM

B7: 16C5 anti-ILT3 antibody (antibody, V domains shown)
VH: EVQLQQSGPELVKPGASVKISCKASGYTFTDYNMDWVKQSHGKSLEWIGYIYPSNGGTGYNQKFKSKATLTVDKSSNTAYMELHSLTSEDSAVYYCARVPYYDYLYYYAMDYWGQGTSVTVSS
VL: QIVLSQSPAILSASPGEKVTMACRASSSVSFMHWYQQKPGSSPQPWIYATSNLASGVPARFSGSGSGTSYSLTISRVEAEDAATYYCQQWSTNPYMYTFGGGTKLEIK
Kd [2]: 0.7 nM

B8: 12A12 anti-ILT3 antibody (antibody, V domains shown)
VH: B7 VH with S54N, K65N, N77S, R98S, V99S, L105V, Y106G, Y107S
VL: QIVLTQSPAIMSASLGERVTMTCTASSSVSSSYLHWYQQKPGSSPKLWIYSTSNLASGVPARFSGSGSGTSYSLTISSMEAEDAATYYCHQYHRSPRTFGGGTKLEIK
Kd [2]: 8.5 nM

B9: Hz45G10 anti-ILT3 antibody (antibody, V domains shown)
VH: EVQLVESGGGLVQPGGSLRLSCAASGFTFSDYGMHWVRQAPGKGLEWVAYIFSGSSTIYYADTVKGRFTISRDNAKNSLYLQMNSLRAEDTAVYYCARADGRGAMDYWGQGTLVTVSS
VL: DIQMTQSPSSLSASVGDRVTITCRASQDISKFLNWYQQKPGKAPKLLIYYTSRLHSGVPSRFSGSGSGTDFTFTISSLQPEDIATYFCQQGNTLPWTFGGGTKLEIK
Kd [2]: 0.13 nM | fold higher affinity than the CD3 scFv (for CD3) [9]: 38 fold
